Tests used:
LftR = biological target: T1, LftR (Listeria monocytogenes, UniProt L8DXR9); assay: fluorescence polarization assay; type: binding
T1 construct: full length, 108 residues, expressed in E. coli; homodimer

LftR L69A = LftR L69A (Listeria monocytogenes, UniProt Q8Y923 1-108, L69A); assay: fluorescence polarization; FP: 28-mer OP-1 with 5' fluorescein, ex 485 nm / em 535 nm, single-site fit (Prism 5); buffer, salt, pH and temperature of FP and EMSA not given in the material; conditions: protein: recombinant; tags: C-terminal His6; chain copies: 2; label: 5' fluorescein on top strand
LftR R53A = LftR R53A (Listeria monocytogenes, UniProt Q8Y923 1-108, R53A); assay: as above; conditions: protein: recombinant; tags: C-terminal His6; chain copies: 2; label: 5' fluorescein on top strand
LftR K56A = LftR K56A (Listeria monocytogenes, UniProt Q8Y923 1-108, K56A); assay: as above; conditions: protein: recombinant; tags: C-terminal His6; chain copies: 2; label: 5' fluorescein on top strand
LftR Y28A = LftR Y28A (Listeria monocytogenes, UniProt Q8Y923 1-108, Y28A); assay: as above; conditions: protein: recombinant; tags: C-terminal His6; chain copies: 2; label: 5' fluorescein on top strand
LftR K9A = LftR K9A (Listeria monocytogenes, UniProt Q8Y923 1-108, K9A); assay: as above; conditions: protein: recombinant; tags: C-terminal His6; chain copies: 2; label: 5' fluorescein on top strand
LftR wildtype = LftR wildtype (Listeria monocytogenes, UniProt Q8Y923 1-108); assay: as above; conditions: protein: recombinant; tags: C-terminal His6 (LftRCtH); chain copies: 2; label: 5' fluorescein on top strand
[1] = biological target: the molecule itself; assay: SEC; Superdex 200 10/300, 20 mM HEPES pH 7.4, 150 mM NaCl; apparent molecular weight from gel filtration standards

Molecule: CC[n+]1c(-c2ccccc2)c2cc(N)ccc2c2ccc(N)cc21 [ethidium bromide]
- Kd (LftR): 3700 ± 1170 nM

B1: OP-1 28-mer dsDNA (FP) (dsDNA)
DNA 1: GTATTACTATATACTTGTACCTAGTAAC
DNA 2: GTTACTAGGTACAAGTATATAGTAATAC
- Kd (LftR L69A): 62.6 ± 1.3 nM
- Kd (LftR R53A): 40.1 ± 0.8 nM
- Kd (LftR K56A): 28.7 ± 2.3 nM
- Kd (LftR Y28A): 89.6 ± 1.9 nM
- Kd (LftR K9A): 197 ± 12.1 nM
- Kd (LftR wildtype): 6.2 ± 1.5 nM

B2: LftRCtH, LftR with a C-terminal His6 tag (natural protein)
chain: MKGLTELLKGSLEGMILERISRGETYGYEITKYLNDLGFDEIVEGTVYTILVRLEKKGLVEIEKKKSELGPPRKFYTLSPAGEEELAIFWKRWDFIQGKIMQVKGGQA
notes: LftR, PadR-2 subfamily transcription factor of Listeria monocytogenes, encoded by lmo0719; 108 residues; Cloned NdeI/XmaI into a modified pET49b vector with a C-terminal His6 tag; source: E. coli BL21 (DE3), purified (Ni-NTA); not shown: His6, C-terminal, kept
- stoichiometry N [1]: 2

B3: LftR_(ΔNtH), tag-free LftR protein after thrombin removal of the N-terminal His6 tag (natural protein)
chain: GSAKDPMKGLTELLKGSLEGMILERISRGETYGYEITKYLNDLGFDEIVEGTVYTILVRLEKKGLVEIEKKKSELGPPRKFYTLSPAGEEELAIFWKRWDFIQGKIMQVKGGQA
notes: six additional vector-derived amino acids left at the N-terminus after thrombin cleavage (numbered -5 to 0 in the structure); LftR, PadR-2 subfamily transcription factor of Listeria monocytogenes, encoded by lmo0719; 108 residues; Expressed from a modified pET49b vector with N-terminal His6 tag and thrombin site; also called Listeria protein facilitating invasion/transcriptional regulator; …
- stoichiometry N [1]: 2

— article PMC6457526, “Structure-based molecular characterization and regulatory mechanism of the LftR transcription factor from Listeria monocytogenes: Conformational flexibilities and a ligand-induced regulatory mechanism” (PLoS ONE, 2019)
